Experiments:
Format in all cases: biochemical
[1] = In vitro transglycosylation at C-3, Rd as glycosyl acceptor, UDP-xylose as donor; settings: crude enzyme (E. coli lysate supernatant); TLC, FIG. 14
[2] = In vitro transglycosylation at C-3, Rh2 as glycosyl acceptor, UDP-glucose as donor; settings: crude enzyme (E. coli lysate supernatant); TLC, FIG. 13, FIG. 15
Excerpt: (§1) Cell lysate of recombinant E. coli with empty vector pET28a was used as a control.

[3] = In vitro transglycosylation at C-20, CK as glycosyl acceptor, UDP-glucose as donor; settings: crude enzyme (E. coli lysate supernatant); TLC/HPLC, FIG. 2, 3, 12, 16
Excerpt: as §1
As shown in FIG. 16: Protopanaxadiol Ginsenoside CK is used as a glycosyl acceptor, and UDP-glucose is used as a glycosyl donor.

[4] = In vitro transglycosylation at C-20, Rd as glycosyl acceptor, UDP-glucose as donor; settings: crude enzyme (E. coli lysate supernatant); TLC/HPLC, FIG. 2, 3, 11
Excerpt: as §1

[5] = In vitro transglycosylation at C-20, CK as glycosyl acceptor, UDP-arabinose as donor; settings: crude enzyme (E. coli lysate supernatant); TLC, FIG. 17

Molecule	product formation from Rd and UDP-xylose (replacement of second glucose at C-3 with xylose) [1]	product formation from Rh2 and UDP-glucose (Rg3) [2]	product formation from CK and UDP-glucose (Gypenoside LXXV) [3]	product formation from Rd and UDP-glucose (Rb1) [4]	product formation from CK and UDP-arabinose (Ginsenoside F3) [5]
GT29-43: Ginseng UDP-glycosyltransferase, 442 amino acids, SEQ ID NO.: 96 (protein, Panax ginseng) MDNQKGRISIALLPFLAHGHISPFFELAKQLAKRNCNVFLCSTPINLSSIKDKDSSASIKLVELHLPSSPDLPPHYHTTNGLPSHLMLPLRNAFETAGPTFSEILKTLNPDLLIYDFNPSWAPEIASSHNIPAVYFLTTAAASSSIGLHAFKNPGEKYPFPDFYDNSNITPEPPSADNMKLLHDFIACFERSCDIILIKSFRELEGKYIDLLSTLSDKTLVPVGPLVQDPMGHNEDPKTEQIINWLDKMAESTVVFVCFGSEYFLSNEELEEVAIGLEISTVNFIWAVRLIEGEKKGILPEGFVQRVGDRGLVVEGWAPQARILGHSSTGGFVSHCGWSSIAESMKFGVPVIAMARHLDQPLNGKLAAEVGVGMEVVRDENGKYKREGIAEVIRKVVVEKSGEVIRRKARELSEKMKEKGEQEIDRALEELVQICKKKKDEQ	can all catalyze the replacement of the second glucose at C-3 position of Rd with xylose	can all catalyze the extension of a glucosyl at the C-3 glycosyl of Rh2 to generate Rg3	–	–	–
GT29-34: Ginseng UDP-glycosyltransferase, 446 amino acids, SEQ ID NO: 8 (protein, misc_feature - GT29-34; Panax ginseng) MDIEKGRIIIVMLPFLAHGHISPFFELAKHLSKRNCNIFLCSTPINLSSIKNRVSDKDSSASIKLVELHLPSSPDLPPHYHTTNGLPSHLMVPLRNAFETAAPTFSEILKTLNPDLLIYDFNPSWAPEIASSHNIPAVYFLTSAAATSSMGLHAFKNSGEKYPFPDFYDNSNITPEPPSADKMKLFHDFVACFKRSCDIILIKSFRELEGKYIDFLSTLSKKTLVPVGPLVQDPMGHDEDPKTGHLINWLDKRAESTVVFVCFGSEYFPSNEELEELAIGLEISMVSFILAVRFPEGEKKGILPEGFVQRVGDRGLVVEGWAPQARILGHSSTGGFVSHCGWSSIMESVKFGVPVIAMARHLDQPLNAKLAAEVGVGMEVMRDENGKYKREGIAEVIRKVVVEKSGEVMRRKARELSEKMKEKGEEEIDRAVEELVQICKKKKDAQ	–	–	can catalyze the formation of a new product	can catalyze the formation of Rb1	can catalyze the first glycosyl of C-20 of CK to extend an arabinosyl to generate Ginsenoside F3
GT29-33: Ginseng UDP-glycosyltransferase, 448 amino acids, SEQ ID NO: 6 (protein, misc_feature - GT29-33; Panax ginseng) MDIEKGRISIVMLPFLAHGHISPFFELAKHLSKRNCNIFLCSTPINLSSIKNRVSDKDSSASIKLVELHLPSSPDLPPHYHTTNGLPSHLMVPLRNAFETAAPTFSEILKTLNPDLLIYDFNPSWAPEIASSHNIPAVYFLTSAAATSSMGLHAFKNSGEKYPFPDFYDNSNITPEPPSADKMKLFHDFVACFKRSCDIILIKSFRELEGKYIDFLSTLSKKTLVPVGPLVQDPMGHDEDPKTGHLINWLDKRAESTVVFVCFGSEYFPSNEELEELAIGLEISMVSFILAVRFPEGEKKGILPEGFVQRVGDRGLVVEGWAPQSRILGHSSTGGFVSHCGWSSIMESVKFGVPVIAMARHLDQPLNAKLAAEVGVGMEVMRDENGKYKREAIAEVIRKVVMEKNGEVMRRKARELSEKMKVKGEQEIGRAVEELVQICKKKKQHAQY	–	–	–	can catalyze the formation of Rb1	can catalyze the first glycosyl of C-20 of CK to extend an arabinosyl to generate Ginsenoside F3
